Values of other authors in patent US9233143B2, “Medicinal agent for preventing exacerbation of malignant tumor, comprising combination of natriuretic peptide receptor GC-A and GC-B agonists” (National Cerebral and Cardiovascular Center, priority 2011, dated 2016).
Bridge positions count the residues as written; N and C are the ends. Ends that are not written are not given here.

Target: T1, natriuretic peptide receptor GC-B (Homo sapiens, UniProt P20594)
T1 sequence (P20594 23-1047): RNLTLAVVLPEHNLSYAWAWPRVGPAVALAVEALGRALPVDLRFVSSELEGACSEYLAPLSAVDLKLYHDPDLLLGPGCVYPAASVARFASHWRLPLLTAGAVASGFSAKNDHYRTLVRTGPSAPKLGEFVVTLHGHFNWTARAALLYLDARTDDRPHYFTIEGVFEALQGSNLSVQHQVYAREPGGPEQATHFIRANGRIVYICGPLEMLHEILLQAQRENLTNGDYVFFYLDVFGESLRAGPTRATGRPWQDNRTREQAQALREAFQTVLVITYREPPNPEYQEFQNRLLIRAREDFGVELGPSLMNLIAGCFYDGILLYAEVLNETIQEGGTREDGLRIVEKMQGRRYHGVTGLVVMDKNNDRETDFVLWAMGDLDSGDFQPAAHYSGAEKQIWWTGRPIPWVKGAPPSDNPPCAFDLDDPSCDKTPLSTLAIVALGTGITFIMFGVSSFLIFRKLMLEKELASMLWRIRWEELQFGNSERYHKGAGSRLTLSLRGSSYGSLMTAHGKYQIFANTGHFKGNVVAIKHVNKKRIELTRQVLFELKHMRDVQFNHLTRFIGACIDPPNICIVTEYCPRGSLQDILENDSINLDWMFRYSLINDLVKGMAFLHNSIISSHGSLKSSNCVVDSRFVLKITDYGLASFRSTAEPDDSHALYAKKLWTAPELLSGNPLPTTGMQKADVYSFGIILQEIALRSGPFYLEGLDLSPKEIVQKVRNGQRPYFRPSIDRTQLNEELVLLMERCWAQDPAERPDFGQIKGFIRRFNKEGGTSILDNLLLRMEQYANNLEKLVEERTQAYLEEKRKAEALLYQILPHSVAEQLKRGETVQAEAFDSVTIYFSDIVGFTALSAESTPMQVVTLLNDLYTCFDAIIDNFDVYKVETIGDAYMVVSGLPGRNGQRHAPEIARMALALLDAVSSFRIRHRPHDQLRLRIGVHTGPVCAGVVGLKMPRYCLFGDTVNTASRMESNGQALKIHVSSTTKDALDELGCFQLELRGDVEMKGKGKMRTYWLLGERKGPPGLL
Conditions: literature reports; cited from earlier work

In the case of “hCNP6-22: a peptide consisting of amino acids from position 6 to position 22 of SEQ ID NO: 7 (only the ring structure) (CFGLKLDRIGSMSGLGC; disulfide 1-17 (inferred); listed as Homo sapiens)”, the GC-B agonist activity is listed as “comparable to that of hCNP-22”.
